B1: AsGGT2 (Allium sativum) (protein)
chain: MEPAHDDLESSLLRYRPLHNDHTTVRRYPIIIIVATFVVFGLLFSIQFNLDNSERVYELKTKSGGEVVQSEVGVVAADDGYCSETGASILRKGGHAVDALVATAICEGIRHPMSSGIGGGAFIVVRSAKDGKAFAFDARETAPIASSRDMYQNNHSDKCLGPLSIGIPGEVAGLHAIWKMYGKLPWKSLFQPSIDLLRNGFKIVPYLDMSIREHADKILSDPGLREVFAPNGRLLRLNDTLYNYRLVNSLETIAREGPQALYSGSIGEKFIQDVRDLGGIITMDDMENYKVEVTEALSGNALGYTIIGMPPPSTGTVGISMVLNILGSYKTLDAVKGLIGIHRLIEAIKHTLGMRMNLGDPNFVNITEYVNDMLSPTYAEKVKERIFDNTTFDLSYYSNKWSQLSDHGTSHVSIVDSERNAVSFTSTINEYFGAGVMSPATGIIANNEMCDFATPTDETVDDIPPAPTNFIEPNKRPLSSMSPLIILKDDNLAGVIGASGGMNIIPAIAQVLINYFILGMDPLKAVQYPRFYHRFTPNVVLYENYTAVNGENFMFPEAAIKFLEERHHQLQMKAGVAAVCQFVVQNLTESGSSNANMKNGGHLRGMLTAVSDPRKDGSPACV
notes: full-length coding region (622 aa), no tag, pYES2 in Saccharomyces cerevisiae BJ2168, crude yeast protein extract
B2: AsGGT1 (Allium sativum) (protein)
chain: MNQMAPASSDQKLGTSLIVRENSTDRRFALHWILILAALTTLFALGLHLSSVQYRGSEELGEFRKGLKSTGGSDAVESEKGVVAADDGYCSEIGASVLRKGGHAVDAVVATAICEGVRHPMSSGIGGGAFMVVRSAKDGKALAFDARETAPLAASKDMYQNNPLAKSLGPLSMGIPGEIAGLHAAWLLYGKLPWKSLFEPSITLLKNGVKIEPYLALSINDNKDKIMSDPGLAEVFAPNGKLLQLNDTFYNFKLADSLEAIAEEGPQAFYNGSIGQKFIQDIRNLGGIVTMNDMRKYTVEITEPLYSDVLGYTLVGMPLPSSGTLGVSMVLNILGSYETLNAMKGFHGLHRLIEAVKHTLAIRMNLGDSKFVNCTKYVDDMLSPTYAEQVKERIFDNTTFDPSYYLNRWSQIRDHGTSHMSIVDSERNAVAFTSTVNMYFGGGVMSPSTGIVANNEMDDFSIPTDATEDGLPPAPSNFIEPNKRPLSSMSPLIILKDNQLAGVLGASGGMNIIPAVSQVFINHFVLGVDPLKAVQHPRFYHTLIPNLVQYENWTALDGELFEFSEAAKEFLAKRNHQLQMKSGAGAVCQFVVQNLTSSNSNKETDGIIRGMLTAVSDPRKDGSPACV
notes: full-length coding region (627 aa), no tag, pYES2 in Saccharomyces cerevisiae BJ2168, crude yeast protein extract
B3: AsGGT3 (Allium sativum) (protein)
chain: MLINSYPAYHCFPHTEEFHQNFMPAYITKWLAVTLLLLVFYKPILAGDEIRHRREVITSKNGAVASDDGRCSVIGTDVLKEGGNAIDAAVAASFCLGVVSAASSGIGGGAFMLIRMANGEAHAIDMRETAPLHASQNMYNGNAILKGSGILSVAVPGEIAGLHKAWKQHGKLPWKRLVMPAAKIAKAGFEISKYLYMQMNRTKSEILKDKGMQDIYASNGTLLNPGDICRNKELACTLREIAVHGPKVFYNGSVGIKLVKDIQKLGGILTLNDLKNYRVKVNKPISANVMGYEILGMPPPSSGGAGMILILNILAQYGIPSGVSGSLGLHRFIESLKHMMAIRMNLGDPEFVNVSQVLSEMLSPKFAEDLKKRIYDNMTFDPSYYGPKWNLVNDHGTSHLSIVDSERNAVSMTSTVNSYFGAGIVSPSTGIVLNNEMDDFSIPSNSSNNNMPPPAPANFIAPLKRPLSSMSPTVVLKDGKLVASLGASGGGMIIAAATHIFLKLFAEKLDPLASALSPRSYHQLIPNVVQYEDWMTVIGDHFLVAEKERAALEKKGHVLKPLAGGTICQFVIQGADDAKELGLGIANGDLMAISDPRKGGIPDGY
notes: full-length coding region (605 aa), no tag, pYES2 in Saccharomyces cerevisiae BJ2168, crude yeast protein extract

Substrate: C=CCSC[C@H](NC(=O)CC[C@H](N)C(=O)O)C(=O)O
Test: HPLC of S-allyl-L-cysteine formed, crude yeast extract
Assay type: biochemical, Allium sativum
Settings: 10 mM glycylglycine as acceptor, 50 mM Tris-HCl pH 8.0 (standard assay), 37°C, 6 h

**Q.** How did the Km turn out when B1 was run?
**A.** 1100 µM

**Q.** With B2 as the protein, how does the Km read?
**A.** 86 µM

**Q.** How did the Km turn out when B3 was run?
**A.** 9400 µM

From article PMC4288057, “Garlic γ-glutamyl transpeptidases that catalyze deglutamylation of biosynthetic intermediate of alliin” (Frontiers in Plant Science, 2015)
